# Starred links: 1 amine or outer side, 2 acyl side, 3 side chain; linkers in the order of their positions; H or OH if unused. Non-standard residues stand in square brackets, D forms with d. No end group written: not given here. Pyn = 1-pyrenylalanine, O=C([C@H](Cc1ccc2ccc3cccc4ccc1c2c34)N[*:1])[*:2]; Phe(4-Cl) = N[C@@H](Cc1ccc(Cl)cc1)C(=O)O; Lys(Me2) = CN(C)CCCC[C@H](N)C(=O)O; Cha = N[C@@H](CC1CCCCC1)C(=O)O
# T1: APJ (orphan G protein-coupled receptor protein)
# T1 chain: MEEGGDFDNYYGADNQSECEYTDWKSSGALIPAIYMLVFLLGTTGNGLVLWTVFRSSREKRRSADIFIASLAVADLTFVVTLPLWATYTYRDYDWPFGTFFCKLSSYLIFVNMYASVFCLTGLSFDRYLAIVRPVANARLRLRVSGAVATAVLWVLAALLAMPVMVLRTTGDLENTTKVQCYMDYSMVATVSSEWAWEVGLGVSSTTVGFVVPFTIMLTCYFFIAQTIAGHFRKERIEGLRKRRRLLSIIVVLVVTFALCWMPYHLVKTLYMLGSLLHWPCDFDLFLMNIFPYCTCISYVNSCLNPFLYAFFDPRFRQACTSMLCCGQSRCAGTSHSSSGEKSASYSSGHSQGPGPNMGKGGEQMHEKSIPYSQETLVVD
# B1: Arg-Arg-Gln-Arg-Pro-Arg-Leu-Ser-Ala-Arg-Gly-Gly-Cha (peptide)
# peptide: RRQRPRLSARGG[Cha]
# modifications: not fully specified; printed as Arg-Arg-Gln-Arg-Pro-Arg-Leu-Ser-Ala-Arg-Gly-Gly-Cha
# notes: also called Compound in Ex. 62
# Molecular target: T1, APJ (orphan G protein-coupled receptor …)
# Assay: radioligand competition, 125I-labelled compound of Ref. Ex. 1 (100 pM), CHO-A10 membrane fraction
row,IC50,Binder
1,0.23 nM,B1
2,1.1 nM,"RPRLSARGP[Cha][Pyn] (not fully specified; printed as Arg-Pro-Arg-Leu-Ser-Ala-Arg-Gly-Pro-Cha-Pyn, also called Compound in Ex. 60) [Arg-Pro-Arg-Leu-Ser-Ala-Arg-Gly-Pro-Cha-Pyn]"
3,0.38 nM,RPRLSA[Lys(Me2)]GPMPF (also called Compound in Ex. 64) [Arg-Pro-Arg-Leu-Ser-Ala-Lys(Me)2-Gly-Pro-Met-Pro-Phe]
4,0.33 nM,RP[Lys(Me2)]LSARGPMPF (also called Compound in Ex. 63) [Arg-Pro-Lys(Me)2-Leu-Ser-Ala-Arg-Gly-Pro-Met-Pro-Phe]
5,2.2 nM,"RPRLSARGP[Cha]P[Pyn] (not fully specified; printed as Arg-Pro-Arg-Leu-Ser-Ala-Arg-Gly-Pro-Cha-Pro-Pyn, also called Compound in Ex. 61) [Arg-Pro-Arg-Leu-Ser-Ala-Arg-Gly-Pro-Cha-Pro-Pyn]"

# Molecular target: T1, APJ (orphan G protein-coupled receptor …)
# Assay: cell-based or functional assay
row,"EC50, inhibition of forskolin-stimulated cAMP production (CHO-A10 clone 6 cells)",Binder
1,0.23 nM,B1
2,1.1 nM,"RPRLSARGP[Cha][Pyn] (not fully specified; printed as Arg-Pro-Arg-Leu-Ser-Ala-Arg-Gly-Pro-Cha-Pyn, also called Compound in Ex. 60) [Arg-Pro-Arg-Leu-Ser-Ala-Arg-Gly-Pro-Cha-Pyn]"
3,0.38 nM,RPRLSA[Lys(Me2)]GPMPF (also called Compound in Ex. 64) [Arg-Pro-Arg-Leu-Ser-Ala-Lys(Me)2-Gly-Pro-Met-Pro-Phe]
4,0.33 nM,RP[Lys(Me2)]LSARGPMPF (also called Compound in Ex. 63) [Arg-Pro-Lys(Me)2-Leu-Ser-Ala-Arg-Gly-Pro-Met-Pro-Phe]
5,2.2 nM,"RPRLSARGP[Cha]P[Pyn] (not fully specified; printed as Arg-Pro-Arg-Leu-Ser-Ala-Arg-Gly-Pro-Cha-Pro-Pyn, also called Compound in Ex. 61) [Arg-Pro-Arg-Leu-Ser-Ala-Arg-Gly-Pro-Cha-Pro-Pyn]"

# Molecular target: T1, APJ (orphan G protein-coupled receptor …)
# Assay: radioligand competition, compound of Ref. Ex. 2 as labelled ligand, CHO-A10 membrane fraction
row,IC50,Binder
1,0.039 nM,RPRLSHKGPMP[Phe(4-Cl)] (also called Compound in Ex. 8) [Arg-Pro-Arg-Leu-Ser-His-Lys-Gly-Pro-Met-Pro-Phe(Cl)]

# Molecular target: T1, APJ (orphan G protein-coupled receptor …)
# Assay: radioligand competition, 125I-labelled compound of Ref. Ex. 1 (100 pM), CHO-A10 membrane fraction
# Remark: another data set of the same source
# Description: This product was mixed with an equal volume of an assay buffer (50 mM Tris-HCl/pH 7.5, 5 mM EDTA, 0.5 mM PMSF, 20 μg/ml leupeptin, 0.1 μg/ml pepstatin A, 4 μg/ml E-64 (Peptide Research Laboratory, Co.), 0.1% bovine serum albumin) and stored at −30° C. before use.
# CHO-A10 cells were cultured, recovered with PBS containing 5 mM EDTA from a culture vessel, and suspended in the above-mentioned assay buffer not containing bovine serum albumin. The cells were homogenized 3 times at 12,000 rpm for 15 seconds by a Polytron homogenizer (manufactured by Kinematica Inc.) and then centrifuged (1000×g, 4° C., 10 minutes), and the supernatant was recovered. The precipitates were subjected again to the same procedure as above, and the respective supernatants were combined and centrifuged at 100,000×g, 4° C. for 1 hour, to recover precipitates (membrane fraction). The membrane fraction was suspended again in a small amount of the buffer, homogenized with a Teflon homogenizer and stored at −80° C. before use.
# Binding assay was carried out under the following conditions. […] containing 0.25 μg of the membrane fraction, the ¹²⁵I-labeled compound at a final concentration of 100 pM, a test sample and an assay buffer were put onto each well of a 96-well polypropylene plate, and incubated at room temperature for 1.5 hours. Measurement of non-specific binding was carried out using a well containing 1 μM unlabeled compound in place of the test sample. After the incubation was finished, a cell harvester (Packard) adapted to 96 wells and a filter unit (GF/C, Packard) were used for separation thereby capturing the membrane fraction on the filter. After the filter was sufficiently dried, Microcinti 0 (Packard) was added thereto, and using Top Count (Packard), the amount of the labeled material captured together with the membrane fraction on the filter was measured.
row,IC50,Binder
1,34 nM,RRARPRLSHKGPMPF (also called Compound in Ex. 25) [Arg-Arg-Ala-Arg-Pro-Arg-Leu-Ser-His-Lys-Gly-Pro-Met-Pro-Phe]
2,27 nM,RPRLSARGPMPF (also called Compound in Ex. 24) [Arg-Pro-Arg-Leu-Ser-Ala-Arg-Gly-Pro-Met-Pro-Phe]
3,9.2 nM,RRKRPRLSHKGPMPF (also called Compound in Ex. 23) [Arg-Arg-Lys-Arg-Pro-Arg-Leu-Ser-His-Lys-Gly-Pro-Met-Pro-Phe]
4,2.5 nM,RRQRPRLSARGPM (also called Compound in Ex. 18) [Arg-Arg-Gln-Arg-Pro-Arg-Leu-Ser-Ala-Arg-Gly-Pro-Met]
5,13 nM,RPRLSHKGPMP[Phe(4-Cl)] (also called Compound in Ex. 8) [Arg-Pro-Arg-Leu-Ser-His-Lys-Gly-Pro-Met-Pro-Phe(Cl)]

# Molecular target: T1, APJ (orphan G protein-coupled receptor …)
# Assay: radioligand competition, compound of Ref. Ex. 2 as labelled ligand, CHO-A10 membrane fraction
# Remark: another data set of the same source
row,IC50,Binder
1,0.14 nM,B1
2,0.8 nM,"RPRLSARGP[Cha][Pyn] (not fully specified; printed as Arg-Pro-Arg-Leu-Ser-Ala-Arg-Gly-Pro-Cha-Pyn, also called Compound in Ex. 60) [Arg-Pro-Arg-Leu-Ser-Ala-Arg-Gly-Pro-Cha-Pyn]"
3,0.074 nM,RP[Lys(Me2)]LSARGPMPF (also called Compound in Ex. 63) [Arg-Pro-Lys(Me)2-Leu-Ser-Ala-Arg-Gly-Pro-Met-Pro-Phe]
4,0.56 nM,"RPRLSARGP[Cha]P[Pyn] (not fully specified; printed as Arg-Pro-Arg-Leu-Ser-Ala-Arg-Gly-Pro-Cha-Pro-Pyn, also called Compound in Ex. 61) [Arg-Pro-Arg-Leu-Ser-Ala-Arg-Gly-Pro-Cha-Pro-Pyn]"

# Molecular target: T1, APJ (orphan G protein-coupled receptor …)
# Assay: cell-based or functional assay
# Remark: another data set of the same source
row,"EC50, inhibition of forskolin-stimulated cAMP production (CHO-A10 clone 6 cells)",Binder
1,0.34 nM,RPRLSHKGPMP[Phe(4-Cl)] (also called Compound in Ex. 8) [Arg-Pro-Arg-Leu-Ser-His-Lys-Gly-Pro-Met-Pro-Phe(Cl)]

# Molecular target: T1, APJ (orphan G protein-coupled receptor …)
# Assay: radioligand competition, compound of Ref. Ex. 2 as labelled ligand, CHO-A10 membrane fraction
# Remark: another data set of the same source
row,IC50,Binder
1,0.067 nM,RRARPRLSHKGPMPF (also called Compound in Ex. 25) [Arg-Arg-Ala-Arg-Pro-Arg-Leu-Ser-His-Lys-Gly-Pro-Met-Pro-Phe]
2,0.27 nM,RPRLFARGPMPF (also called Compound in Ex. 31) [Arg-Pro-Arg-Leu-Phe-Ala-Arg-Gly-Pro-Met-Pro-Phe]
3,0.37 nM,RRFRPRLSHKGPMPF (also called Compound in Ex. 33) [Arg-Arg-Phe-Arg-Pro-Arg-Leu-Ser-His-Lys-Gly-Pro-Met-Pro-Phe]
4,0.057 nM,RPRLSARGPMPF (also called Compound in Ex. 24) [Arg-Pro-Arg-Leu-Ser-Ala-Arg-Gly-Pro-Met-Pro-Phe]
5,0.09 nM,RRKRPRLSHKGPMPF (also called Compound in Ex. 23) [Arg-Arg-Lys-Arg-Pro-Arg-Leu-Ser-His-Lys-Gly-Pro-Met-Pro-Phe]
6,0.023 nM,RRQRPRLSARGPM (also called Compound in Ex. 18) [Arg-Arg-Gln-Arg-Pro-Arg-Leu-Ser-Ala-Arg-Gly-Pro-Met]
7,1.8 nM,RPRLFARGPMF (also called Compound in Ex. 47) [Arg-Pro-Arg-Leu-Phe-Ala-Arg-Gly-Pro-Met-Phe]
8,0.11 nM,RPRLSARGPM (also called Compound in Ex. 27) [Arg-Pro-Arg-Leu-Ser-Ala-Arg-Gly-Pro-Met]
9,0.036 nM,RRQRPRLSARGPMPF (also called Compound in Ex. 17) [Arg-Arg-Gln-Arg-Pro-Arg-Leu-Ser-Ala-Arg-Gly-Pro-Met-Pro-Phe]

# Molecular target: T1, APJ (orphan G protein-coupled receptor …)
# Assay: cell-based or functional assay
# Remark: another data set of the same source
row,"EC50, inhibition of forskolin-stimulated cAMP production (CHO-A10 clone 6 cells)",Binder
1,0.25 nM,RRARPRLSHKGPMPF (also called Compound in Ex. 25) [Arg-Arg-Ala-Arg-Pro-Arg-Leu-Ser-His-Lys-Gly-Pro-Met-Pro-Phe]
2,0.14 nM,RPRLFARGPMPF (also called Compound in Ex. 31) [Arg-Pro-Arg-Leu-Phe-Ala-Arg-Gly-Pro-Met-Pro-Phe]
3,1.1 nM,RRFRPRLSHKGPMPF (also called Compound in Ex. 33) [Arg-Arg-Phe-Arg-Pro-Arg-Leu-Ser-His-Lys-Gly-Pro-Met-Pro-Phe]
4,0.25 nM,RPRLSARGPMPF (also called Compound in Ex. 24) [Arg-Pro-Arg-Leu-Ser-Ala-Arg-Gly-Pro-Met-Pro-Phe]
5,0.32 nM,RRRRPRLSHKGPMPF [Arg-Arg-Arg-Arg-Pro-Arg-Leu-Ser-His-Lys-Gly-Pro-Met-Pro-Phe]
6,0.31 nM,RRKRPRLSHKGPMPF (also called Compound in Ex. 23) [Arg-Arg-Lys-Arg-Pro-Arg-Leu-Ser-His-Lys-Gly-Pro-Met-Pro-Phe]
7,0.18 nM,RRQRPRLSARGPM (also called Compound in Ex. 18) [Arg-Arg-Gln-Arg-Pro-Arg-Leu-Ser-Ala-Arg-Gly-Pro-Met]
8,0.36 nM,RPRLFARGPMF (also called Compound in Ex. 47) [Arg-Pro-Arg-Leu-Phe-Ala-Arg-Gly-Pro-Met-Phe]
9,0.26 nM,RRQRPRLSARGP [Arg-Arg-Gln-Arg-Pro-Arg-Leu-Ser-Ala-Arg-Gly-Pro]
